# Measured values published in publication PMC10776578, “Epstein-Barr virus-driven B cell lymphoma mediated by a direct LMP1-TRAF6 complex” (Nature Communications, 2024).
# Positions count from the first letter of the chain named. Names and notes keep the numbering of the source.
# B1: K469A (protein, UniProt Q9Y4K3 1-522, looked up, variant K469A)
# TNF receptor-associated …: MSLLNCENSCGSSQSESDCCVAMASSCSAVTKDDSVGGTASTGNLSSSFMEEIQGYDVEFDPPLESKYECPICLMALREAVQTPCGHRFCKACIIKSIRDAGHKCPVDNEILLENQLFPDNFAKREILSLMVKCPNEGCLHKMELRHLEDHQAHCEFALMDCPQCQRPFQKFHINIHILKDCPRRQVSCDNCAASMAFEDKEIHDQNCPLANVICEYCNTILIREQMPNHYDLDCPTAPIPCTFSTFGCHEKMQRNHLARHLQENTQSHMRMLAQAVHSLSVIPDSGYISEVRNFQETIHQLEGRLVRQDHQIRELTAKMETQSMYVSELKRTIRTLEDKVAEIEAQQCNGIYIWKIGNFGMHLKCQEEEKPVVIHSPGFYTGKPGYKLCMRLHLQLPTAQRCANYISLFVHTMQGEYDSHLPWPFQGTIRLTILDQSEAPVRQNHEEIMDAKPELLAFQRPTIPRNPAGFGYVTFMHLEALRQRTFIKDDTLLVRCEVSTRFDMGSLRREGFQPRSTDAGV
# B2: 371-T6wt: TRAF6 wild-type coexpressed with LMP1Δ371-386 (protein, UniProt Q9Y4K3 1-522, looked up)
# TNF receptor-associated …: B1 TNF receptor-associated … with A469K
# B3: GST-LMP1_(181-386) L382A (domain or fragment)
# chain: LIWMYYHGQRHSDEHHHDDSLPHPQQATDDSGHESDSNSNEGRHHLLVSGAGDGPPLCSQNLGAPGGGPDNGPQDPDNTDDNGPQDPDNTDDNGPHDPLPQDPDNTDDNGPQDPDNTDDNGPHDPLPHSPSDSAGNDGGPPQLTEEVENKGGDQGPPLMTDGGGGHSHDSGHGGGDPHLPTLLLGSSGSGGDDDDPHGPVQASYYD
# notes: source: E. coli DH5α or BL21 Codon Plus RIPL, purified (glutathione Sepharose 4B)
# B4: GST-LMP1_(181-386) Y385A (domain or fragment)
# chain: B3 chain with A202L, Y205A
# notes: also called mutation of Y385 (alanine scan); source: E. coli DH5α or BL21 Codon Plus RIPL, purified (glutathione Sepharose 4B)
# B5: GST-LMP1_(181-386) S383A (domain or fragment)
# chain: B3 chain with A202L, S203A
# notes: as for B3
# B6: GST-LMP1_(181-386) Y384F (domain or fragment)
# chain: B3 chain with A202L, Y204F
# notes: also called LMP1 Y384F; source: E. coli DH5α or BL21 Codon Plus RIPL, purified (glutathione Sepharose 4B)
# B7: GST-RANK_(314-355) (domain or fragment)
# chain: GGGPYAQGEDARMLSLVSKTEIEEDSFRQMPTEDEYMDRPSQ
# notes: also called TRANCE receptor; source: E. coli DH5α or BL21 Codon Plus RIPL, purified (glutathione Sepharose 4B)
# B8: GST-LMP1_(181-386) Q381E (domain or fragment)
# chain: B3 chain with Q201E, A202L
# notes: also called LMP1 Q381E; source: E. coli DH5α or BL21 Codon Plus RIPL, purified (glutathione Sepharose 4B)
# Columns and labels:
# HA-LMP1 [1] = assay: Confocal immunofluorescence colocalization of Flag-TRAF6 with HA-LMP1 in HeLa cells; format: cell-based, Epstein-Barr virus; conditions: for colocalization of TRAF6 with LMP1, mean: mean of ten cells
# Procedure: HeLa cells were seeded onto cover glasses (Thermo Scientific, Menzel) in 24-well plates one day before transfection. Cells were transfected at 50–60% confluency with 50 ng of pCMV-HA-LMP1 plasmids and 100 ng of pRK5-Flag-TRAF6 plasmids, adjusted to a total of 500 ng DNA per sample with pRK5 empty vector, using Lipofectamine 2000 (Thermo Fisher Scientific) according to the manufacturer’s instructions. At 24 h posttransfection, cells were washed once with PBS and fixed with 4% paraformaldehyde (Sigma-Aldrich) for 20 min at RT, followed by permeabilization with 0.3% (v/v) Triton X-100 and blocking with 5% (v/v) FBS in PBS for 1 h at RT. For immunostaining, the cells were incubated overnight with the primary antibodies α-HA (1:1000, clone 16B12, BioLegend) and α-DYKDDDDK (1:1000, clone L5, BioLegend) at 4 °C. The secondary antibodies goat α-mouse Alexa 488 (1:500, cross-adsorbed, Invitrogen, #A-11029) and goat α-rat Alexa 555 (1:500, cross-adsorbed, Invitrogen, #A-21434) were added for 1.5 h at RT. Microscope slides were sealed with cover glasses using Mowiol mounting medium (Sigma-Aldrich). Nuclei were stained with Hoechst 33258 (Sigma-Aldrich). All samples were imaged using a Leica TCS SP5 confocal microscope with 405 nm, 488 nm, 543 nm or 633 nm laser lines, scanning each channel separately under image capture conditions that eliminated channel overlap. For each single experiment, 10 transfected cells positive for both constructs were randomly captured as single-cell images for quantification. The resulting images were then analyzed using the Leica TCS SP5 colocalization analyses application (LAS AF Version 2.7.3.9723). Analysis was performed with default parameters.
# GST-CD40_216-277 = assay: AlphaScreen PPI, TRAF6 mutants binding to CD40; parameters: species or system human; TRAF6 binding to CD40 (AlphaScreen), mean: unit not given here
# Procedure: (§1) Fig. 2 LMP1 binds to the receptor-interacting surface of TRAF6. a Mutations within the receptor-interacting surface of TRAF6 affect binding to LMP1. The TRAF6 mutants R392A, K469A, F471A, and Y473A were tested LMP1 in AlphaScreen PPI experiments with GST-LMP1_181-386. Data are mean values ± SD of three independent experiments. Statistics: one-way ANOVA. b TRAF6 R392A differentiates between CD40 and LMP1/RANK. AlphaScreen PPI experiments with GST-CD40_216-277. Data are mean values ± SD of three independent experiments. […] AlphaScreen PPI experiments with GST-RANK314-355. Data are mean values ± SD of four independent experiments. Statistics: one-way ANOVA. d TRAF6 mutants that fail to interact with LMP1 in PPI assays are also unable to bind cellular LMP1. HEK293 cells were co-transfected with HA-LMP1 and the indicated Flag-TRAF6 mutants. Flag-TRAF6 was immunoprecipitated (IP) via its Flag-tag and coprecipitated HA-LMP1 was detected on immunoblots by an α-HA antibody. Uncropped blots in Supplementary Fig. 6b. For statistical analysis LMP1 signals were digitalized and quantified (graph). Data are mean values ± SD of three independent experiments. […] TRAF6 recruitment is dependent on amino acids 371 − 386 of LMP1 (small panel). Confocal microscopy images show representative cells of three independent experiments. Quantitative data are mean values ± SD of ten randomly selected cells per transfection of one representative experiment (graph). Scale bars: 10 µm. Statistics: one-way ANOVA. p-values: *p ≤ 0.05, **p ≤ 0.01, ***p ≤ 0.001, ****p ≤ 0.0001. Source data and exact p-values in the Source Data file.
# (§2) AlphaScreen experiments were performed in 96- or 384-well plates (Perkin Elmer, OptiPlate). In both assay formats, His-TRAF and GST-LMP1, GST-CD40, or GST-RANK proteins were incubated together in 40 µL of PBS (protein concentrations were calculated to the final reaction volume of 60 µL) supplemented with 0.5% BSA (Sigma, #A7030) and 0.1% Tween-20 (AppliChem, #A4974), for 1 h at room temperature (RT). If not indicated otherwise, standard protein concentrations were 300 nM for His-TRAF proteins and 100 nM for GST-LMP1 proteins. Ni-NTA-acceptor (Perkin Elmer, #6760619 C) and GST-acceptor (Perkin Elmer, # 6765300) beads were added each to a final concentration of 1–4 µg per mL in a final reaction volume of 60 µL and incubated for 1 h at RT in the dark. AlphaScreen PPI signals were measured in a CLARIOstar reader (BMG Labtech GmbH).
# GST-LMP1_181-386 = assay: AlphaScreen PPI, TRAF6 mutants binding to LMP1; parameters: species or system Epstein-Barr virus; TRAF6 binding to LMP1 (AlphaScreen), mean: unit not given here
# Procedure: as §1, §2
# HA-LMP1 [2] = assay: Coimmunoprecipitation of HA-LMP1 with Flag-TRAF6 mutants in HEK293 cells; format: cell-based, Epstein-Barr virus
# Procedure: Immunoblotting was essentially performed as described. Proteins were detected on nitrocellulose membranes (Bio-Rad, #1620115) using the following primary antibodies: α−6*His-tag (clone 4A4 or 2F12, source: antibody facility of the Helmholtz Center Munich, hybridoma supernatants were used at a 1:10 dilution)[75], α-TRAF6 (H-274, Santa Cruz Biotech., #sc-7221, used at 1:1000), α-HA-tag (12CA5, Sigma-Aldrich, #11583816001, used at 0.4 µg per mL), α-IκBα (C-21, Santa Cruz Biotech., #sc-371, used at 1:500) and α-Tubulin (B-5-1-2, Santa Cruz Biotech., #sc-23948, used at 1:500). Horseradish peroxidase-coupled antibodies were used as secondary antibodies (Cell Signalling Technology, #7074 or #7076, respectively, both used at 1:5000). ECL signals were captured on X-ray films (Agfa Healthcare) and quantified by densitometry using the ImageJ software. Uncropped scans of immunoblots indicating molecular weights are provided in Supplementary Fig. 6.
# HEK293 cells were transfected with 1 µg of pRK5-Flag TRAF6 plasmids, 1 µg of pCMV-HA-LMP1 and 6 µg of pRK5 per 10 cm cell culture dish using PolyFect Transfection Reagent (Qiagen, #301107) in RPMI without supplements. Cells were incubated with the plasmid transfection mix for 4 h before the medium was changed to RPMI full medium. After 24 h, the cells were lysed in NP40-lysis buffer (50 mM HEPES pH 7.5, 150 mM NaCl, 5 mM EDTA, 0.5 mM sodium orthovanadate, 0.5 mM PMSF, 0.5 mM sodium molybdate, and cOmplete protease inhibitor cocktail). Lysates were cleared by centrifugation at 15000 x g for 10 min at 4 °C, and the protein concentration was adjusted to 1 mg per mL. For immunoprecipitation 4 mL of lysate was incubated with the α-Flag antibody 6F7 (Sigma-Aldrich, #F3165; covalently coupled to protein-G-Sepharose) for 1 h at 4 °C. The beads were pelleted at 15000 x g for 30 seconds at 4 °C, washed twice with NP40-lysis buffer, and analyzed by immunoblotting.
# His-TRAF6_(310-522) = biological target: T1, His-TRAF6_(310-522) (human, UniProt Q9Y4K3 310-522); assay: AlphaScreen or HTRF; AlphaScreen PPI assay: His-TRAF and GST-LMP1, GST-CD40 or GST-RANK in PBS with 0.5% BSA and 0.1% Tween-20, 1 h at RT; standard 300 nM His-TRAF and 100 nM GST protein if not indicated otherwise; for KD His-TRAF6 at different concentrations, fit one site-specific binding with hill slope; conditions: both partners purified
# T1 construct: also called His-T6; recombinant TRAF6 wild-type; source: E. coli BL21 Codon Plus RIPL, purified (Ni-NTA)
# T1 sequence: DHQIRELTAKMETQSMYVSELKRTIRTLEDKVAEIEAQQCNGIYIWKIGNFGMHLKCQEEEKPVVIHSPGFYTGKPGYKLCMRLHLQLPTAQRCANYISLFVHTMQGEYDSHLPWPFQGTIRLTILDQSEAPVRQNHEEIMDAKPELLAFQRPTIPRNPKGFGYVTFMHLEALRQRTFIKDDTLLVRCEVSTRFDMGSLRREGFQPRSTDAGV
molecule,measurement,setting,value
B1,colocalization with HA-LMP1 (in words),HA-LMP1 [1]; confocal microscopy,colocalized to a high extent with HA-LMP1 clusters
same,"colocalization of TRAF6 with LMP1, mean",HA-LMP1 [1],98.27
same,effect of TRAF6 mutation on binding to CD40 (in words),GST-CD40_216-277; AlphaScreen PPI,did not affect the TRAF6 interaction with LMP1 or CD40
same,"TRAF6 binding to CD40 (AlphaScreen), mean","GST-CD40_216-277; Figure 2b, mean of n = 3",89.86
same,TRAF6 binding to CD40 (AlphaScreen),"GST-CD40_216-277; Figure 2b, relative to mean wt 100, replicate 1",52.8
same,TRAF6 binding to CD40 (AlphaScreen),"GST-CD40_216-277; Figure 2b, replicate 2",105.6
same,TRAF6 binding to CD40 (AlphaScreen),"GST-CD40_216-277; Figure 2b, replicate 3",111.2
same,effect of TRAF6 mutation on binding to LMP1 (in words),GST-LMP1_181-386; AlphaScreen PPI,did not affect the TRAF6 interaction with LMP1 or CD40
same,"TRAF6 binding to LMP1 (AlphaScreen), mean","GST-LMP1_181-386; Figure 2a, mean of n = 3",102.4
same,TRAF6 binding to LMP1 (AlphaScreen),"GST-LMP1_181-386; Figure 2a, relative to mean wt 100, replicate 1",73.0
same,TRAF6 binding to LMP1 (AlphaScreen),"GST-LMP1_181-386; Figure 2a, replicate 2",116.6
same,TRAF6 binding to LMP1 (AlphaScreen),"GST-LMP1_181-386; Figure 2a, replicate 3",117.5
same,"coprecipitated HA-LMP1 signal (densitometry), mean","HA-LMP1 [2]; HEK293, mean of n = 3",17563327
same,interaction of TRAF6 mutants with LMP1 in HEK293 cells (in words),HA-LMP1 [2]; coimmunoprecipitation,no negative effect on the interaction
B2,"colocalization of TRAF6 with LMP1, mean",HA-LMP1 [1],32.37
B3,binding result,His-TRAF6_(310-522),binds
B4,binding result,His-TRAF6_(310-522),binds
B5,binding result,His-TRAF6_(310-522),binds
B6,binding result,His-TRAF6_(310-522),binds
B7,Kd,His-TRAF6_(310-522),7.7 nM
B8,Kd,His-TRAF6_(310-522),14.7 nM
